The target of experiment [1] is T1, Bacillus stearothermophilus helicase DnaB (B. stearothermophilus, UniProt Q9X4C9 1-454).
T1 construct: replicative DNA helicase DnaB of Bacillus stearothermophilus; N-terminal domain, linker and C-terminal RecA-fold domain; both the NTD and the CTD are in the structure; also called BstDnaB; hexameric helicase ring
T1 sequence: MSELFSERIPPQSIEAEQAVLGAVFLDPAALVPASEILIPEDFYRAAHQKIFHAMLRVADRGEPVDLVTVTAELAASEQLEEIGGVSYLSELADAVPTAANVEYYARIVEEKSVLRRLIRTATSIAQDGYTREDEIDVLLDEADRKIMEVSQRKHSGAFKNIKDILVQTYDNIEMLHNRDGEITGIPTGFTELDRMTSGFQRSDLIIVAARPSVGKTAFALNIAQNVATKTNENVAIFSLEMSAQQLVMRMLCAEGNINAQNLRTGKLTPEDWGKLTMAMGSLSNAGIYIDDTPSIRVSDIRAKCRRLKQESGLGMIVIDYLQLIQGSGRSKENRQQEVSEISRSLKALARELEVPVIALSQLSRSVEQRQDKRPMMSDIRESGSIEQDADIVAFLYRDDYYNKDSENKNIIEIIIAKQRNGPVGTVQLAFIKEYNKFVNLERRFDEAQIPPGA
In words: crystal structure; another crystal form obtained under different conditions, content shown by molecular replacement. The following applies: both partners purified.

Experiment [2] concerns the target T1, Bacillus stearothermophilus helicase …. Put plainly: crystal structure; 570-kDa complex of BstDnaB, BsuDnaI and HBD of BstDnaG, molecular replacement, 7.5 Å; proteins in the crystals confirmed by tryptic digestion and mass spectrometry. The following applies: both partners purified.
The target of experiment [3] is T2, Bacillus subtilis helicase loader protein DnaI (B. subtilis), P06567.
T2 chain: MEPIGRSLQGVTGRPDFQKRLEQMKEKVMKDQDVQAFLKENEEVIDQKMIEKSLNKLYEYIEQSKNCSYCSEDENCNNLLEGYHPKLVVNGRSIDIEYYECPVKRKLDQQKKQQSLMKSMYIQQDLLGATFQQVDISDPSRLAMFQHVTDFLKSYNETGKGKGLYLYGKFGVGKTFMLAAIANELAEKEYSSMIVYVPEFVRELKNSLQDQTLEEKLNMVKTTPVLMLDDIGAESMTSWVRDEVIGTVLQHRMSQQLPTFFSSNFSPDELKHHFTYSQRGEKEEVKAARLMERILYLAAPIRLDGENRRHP
Described as above. To be noted: remark: other sources report otherwise.

Experiment [4] has as its target T2, Bacillus subtilis helicase loader …. In words: SEC-MALS; gel filtration and multiple-angle light scattering of BsuDnaI alone at 10 mg/ml. To be noted: remark: other sources report otherwise. (SEC sorts molecules by how far they enter the pores of the column.)

B1: helicase-binding domain (HBD) of Bacillus stearothermophilus primase DnaG (domain or fragment, B. stearothermophilus)
chain: KLLPAFQNAERLLLAHMMRSRDVALVVQERIGGRFNIEEHRALAAYIYAFYEEGHEADPGALISRIPGELQPLASDVSLLLIADDVSEQELEDYIRHVLNRPKWLMLKVKEQEKTEAERRKDFLTAARIAKEMIEMKKMLSSS
notes: also called HBD of BstDnaG; HBD of primase DnaG
Broadly, the stoichiometry N is the number of molecules, sites or subunits per partner or assembly. Turning to B1, the “stoichiometry N” value in experiment [1] is 3 HBDs per DnaB hexamer; in experiment [2] it was 3 HBDs per helicase hexamer.

B2: Bacillus subtilis helicase loader protein DnaI (natural protein, B. subtilis)
chain: MEPIGRSLQGVTGRPDFQKRLEQMKEKVMKDQDVQAFLKENEEVIDQKMIEKSLNKLYEYIEQSKNCSYCSEDENCNNLLEGYHPKLVVNGRSIDIEYYECPVKRKLDQQKKQQSLMKSMYIQQDLLGATFQQVDISDPSRLAMFQHVTDFLKSYNETGKGKGLYLYGKFGVGKTFMLAAIANELAEKEYSSMIVYVPEFVRELKNSLQDQTLEEKLNMVKTTPVLMLDDIGAESMTSWVRDEVIGTVLQHRMSQQLPTFFSSNFSPDELKHHFTYSQRGEKEEVKAARLMERILYLAAPIRLDGENRRHP
notes: primosomal helicase loader DnaI of Bacillus subtilis 168, cloned by PCR from genomic DNA into NcoI-XhoI of pET21d(+); the reverse primer has no stop codon before XhoI, so a C-terminal His tag of the vector is surmised; No cleavage of the tag is described; also called BsuDnaI
On to B2, for which the stoichiometry N was 6 in experiment [3], 3 loader dimers per helicase hexamer in experiment [2] and 2 in experiment [4]. Also, the percent monomer at 10 mg/ml in experiment [4] turned out to be 93%.
